Legend:
[1] = tested on: C[C@@H]1O[C@@H](Oc2ccc(O)c3c2C(=O)c2ccccc2C3=O)[C@H](O)[C@H](O)[C@H]1O; experiment: HPLC methylation assay, nonlinear Michaelis-Menten fit; assay type: biochemical, Nocardia sp. CS682; conditions: 2 mM SAM (saturating), 2 mM MgCl2, 50 mM Tris-HCl pH 7.5, QR 5 to 200 μM
[2] = tested on: C[S+](CC[C@H](N)C(=O)O)C[C@H]1O[C@@H](n2cnc3c(N)ncnc32)[C@H](O)[C@@H]1O; experiment: as above; assay type: biochemical, Nocardia sp. CS682; conditions: 100 μM QR (near saturation), 2 mM MgCl2, 50 mM Tris-HCl pH 7.5, SAM 5 to 200 μM

## ThnM1 (Nocardia sp. CS682)
[1]
  Km: 11.70 ± 1.97 µM
[2]
  Km: 32.7 ± 7.06 µM

From PMC9275233, “Functional Characterization of a Regiospecific Sugar-O-Methyltransferase from Nocardia” (Applied and Environmental Microbiology, 2022)
